T1: 6xHisLip-VIN3VEL RR>AD (ITC) (Arabidopsis thaliana, UniProt Q9FIE3 529-603, R554A | R556D)
T1 construct: VEL domain of VIN3, Arabidopsis thaliana, Q9FIE3, R554A R556D; residues 529-603 by the methods' rule for pLipK-VIN3VEL ('unless specified otherwise'); also called VIN3VEL head mutant; source: E. coli BL21(DE3) pRARE2, purified (Ni-NTA, SEC); not shown: 6xHis, N-terminal, kept; lipoyl (Lip) solubility tag, N-terminal, kept
T1 sequence (looked up): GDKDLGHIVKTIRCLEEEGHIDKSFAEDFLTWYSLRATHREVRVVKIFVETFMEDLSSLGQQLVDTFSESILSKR

B1: VIN3VEL RR>AD (R554A R556D), residues 529–603, untagged (domain or fragment, Arabidopsis thaliana, UniProt Q9FIE3 529-603, looked up)
chain: GDKDLGHIVKTIRCLEEEGHIDKSFAEDFLTWYSLRATHREVRVVKIFVETFMEDLSSLGQQLVDTFSESILSKR
modifications: selenomethionine (labelling for phasing, crystals); 13C-15N double-labeled (NMR)
notes: VEL domain of VIN3, Arabidopsis thaliana, Q9FIE3, residues 529-603, R554A R556D; Used for the crystal structure 7O6U and, as 'untagged RR>AD', for NMR; also called VIN3 R554A R556D; VIN3VEL head mutant; source: E. coli BL21(DE3) pRARE2, purified (Ni-NTA, TEV cleavage, SEC); not shown: 6xHis, N-terminal, cleaved

Assays:
[1] = biological target: T1, 6xHisLip-VIN3VEL RR>AD (ITC); experiment: ITC; 25°C; 1 mM 6xHisLip-VIN3VEL I575D injected into 100 μM 6xHisLip-VIN3VEL RR>AD; 25 mM Tris pH 7.4, 200 mM NaCl, 0.5 mM DTT, 0.06% NaN3; head-to-tail interface between a head mutant and a tail mutant; settings: both partners purified
[2] = biological target: B1; experiment: NMR titration; 300 μM 13C-15N VEL RR>AD with 100 μM unlabeled VEL I575D; peak heights in 1H-15N fast-HSQC spectra; 25 mM phosphate pH 6.7, 150 mM NaCl, 283 K; settings: both partners purified
[3] = biological target: the molecule itself; experiment: crystal structure; untagged VEL domains bearing polymerization-deficient point mutations, 4–25 mg/mL, sitting-drop vapor diffusion at 18°C; SAD with selenomethionine
[4] = biological target: the molecule itself; experiment: SEC-MALS; Superdex200 10/300 GL in PBS with 1 mM DTT; increasing protein concentrations (2 mg/mL unless stated otherwise); self-association

Binder	binding result [3]	stoichiometry N [4]	further results
6xHisLip-VIN3VEL I575D (ITC) (domain or fragment, Arabidopsis thaliana, UniProt Q9FIE3 529-603, looked up, VEL domain of VIN3, Arabidopsis thaliana, Q9FIE3, I575D; residues 529-603 by the methods' rule for pLipK-VIN3VEL ('unless specified otherwise'); also called VIN3VEL tail mutant; source: E. coli BL21(DE3) pRARE2, purified (Ni-NTA, SEC); not shown: 6xHis, N-terminal, kept; lipoyl (Lip) solubility tag, N-terminal, kept) GDKDLGHIVKTIRCLEEEGHIDKSFRERFLTWYSLRATHREVRVVKDFVETFMEDLSSLGQQLVDTFSESILSKR			Kd [1]: 1.16 µM
VIN3VEL I575D, untagged (domain or fragment, Arabidopsis thaliana, UniProt Q9FIE3 529-603, looked up, selenomethionine (labelling for phasing, crystals), VEL domain of VIN3, Arabidopsis thaliana, Q9FIE3, I575D; also called VIN3 I575D; VIN3VEL tail mutant; source: E. coli BL21(DE3) pRARE2, purified (Ni-NTA, TEV cleavage, SEC); not shown: 6xHis, N-terminal, cleaved) GDKDLGHIVKTIRCLEEEGHIDKSFRERFLTWYSLRATHREVRVVKDFVETFMEDLSSLGQQLVDTFSESILSKR	binds		binding result [2]: binds
B1	binds		
VEL1VEL I664D, residues 616–692, untagged (domain or fragment, Arabidopsis thaliana, UniProt Q9SUM4 616-692, looked up, selenomethionine (labelling for phasing), VEL domain of VEL1, Arabidopsis thaliana, Q9SUM4, residues 616-692, I664D; also called VEL1 I664D; source: E. coli BL21(DE3) pRARE2, purified (Ni-NTA, TEV cleavage, SEC); not shown: 6xHis, N-terminal, cleaved) GGTESGLEHCVKIIRQLECSGHIDKNFRQKFLTWYSLRATSQEIRVVKDFIDTFIDDPMALAEQLIDTFDDRVSIKR	binds		
Lip-VIN3VEL (residues 500–603), wild type (domain or fragment, Arabidopsis thaliana, UniProt Q9FIE3 500-603, looked up, VEL domain of VIN3, Arabidopsis thaliana, Q9FIE3, residues 500-603; also called WT domain; source: E. coli BL21(DE3) pRARE2, purified (Ni-NTA, SEC); not shown: lipoyl (Lip) solubility tag, N-terminal, kept) GKQGGNKRFKSRTVSLNEKPEINNAANGVGDKDLGHIVKTIRCLEEEGHIDKSFRERFLTWYSLRATHREVRVVKIFVETFMEDLSSLGQQLVDTFSESILSKR		~9 -mer	
Lip-VEL1VEL (residues 589–692), wild type (domain or fragment, Arabidopsis thaliana, UniProt Q9SUM4 589-692, looked up, VEL domain of VEL1, Arabidopsis thaliana, Q9SUM4, residues 589-692; source: E. coli BL21(DE3) pRARE2, purified (Ni-NTA, SEC); not shown: lipoyl (Lip) solubility tag, N-terminal, kept) SDEIKNRQARIEISMKDNCNNGDHSANGGTESGLEHCVKIIRQLECSGHIDKNFRQKFLTWYSLRATSQEIRVVKIFIDTFIDDPMALAEQLIDTFDDRVSIKR		> 20 -mer	

— article PMC7614096, “Head-to-tail polymerization by VEL proteins underpins cold-induced Polycomb silencing in flowering control” (Cell Reports, 2022)
